The data set has as its target VP35 IID (interferon inhibitory domain) (Ebola virus, UniProt X5GXU1 215-340). The data set is described as follows: EMSA. A general note: A gel shift assay detects complexes by their altered migration in electrophoresis.

B1: 10 bp dsRNA probe (dsRNA)
RNA 1: CACUGCGACC
RNA 2: GGUCGCAGUG
With B1, the binding result is listed as “binds”.

The values above are taken from paper PMC5065780.
